Target: T1, HLA-A*0205 (human)
T1 construct: Native HLA immunoprecipitated from shock-frozen tumor tissue
Assay: HLA immunoprecipitation from glioblastoma tissue, peptide elution, ESI-LCMS/MS

binding result: binds
B1: PTP-001 (peptide)
peptide: ALTTLMHQL
notes: Natural HLA ligand eluted from glioblastoma tissue

From patent EP2105501A1 (Immatics Biotechnologies GmbH, dated 2009)
